Results reported in the supplement of paper PMC7125110.
± gives the standard error. Variants at the floor of the assay were thinned out.

B1: glmS ribozyme (parent)
chain: AUAAAAGCGCCAGAACUACAGAAAUGUAGUUGACGAGGAGGAGGUUUAUCGAAUUUUCGGCGGAUGCCUCCAAA

Tests used:
Conditions in all cases: with glucosamine-6-phosphate
glucosamine-6-phosphate [1] = variants of: B1; test: self-cleavage kobs at 40 uM GlcN6P; higher = faster cleavage; RNA array
Method in brief: (§1)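 The measurements used barcoded ribozyme variants on sequenced MiSeq chips, transcribed in situ by E. coli RNA polymerase and tracked at 37 °C with a hybridised Cy3 probe. Glucosamine-6-phosphate, 40 μM to 10 mM in HEPES/KCl/Mg(OAc)2 buffer, was flowed in while tiles were imaged over ~14 h. Baseline-normalised signals, also normalised to non-cleaving reference variants, gave per-tile medians that were fit to one- or two-exponential decays for kobs. kcat and KM resulted from weighted Michaelis–Menten fits across concentrations.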

glucosamine-6-phosphate [2] = variants of: B1; test: self-cleavage kobs at 10000 uM GlcN6P; higher = faster cleavage; RNA array
Method in brief: as §1

glucosamine-6-phosphate [3] = variants of: B1; test: self-cleavage kobs at 160 uM GlcN6P; higher = faster cleavage; RNA array
Method in brief: as §1

glucosamine-6-phosphate [4] = variants of: B1; test: self-cleavage kobs at 640 uM GlcN6P; higher = faster cleavage; RNA array
Method in brief: as §1

glucosamine-6-phosphate [5] = variants of: B1; test: self-cleavage kobs at 2500 uM GlcN6P; higher = faster cleavage; RNA array
Method in brief: as §1

AUAAAAGCGCCAGAACUACAGAAAUGUAGUUGACGAGGAGCAGGUUUAUCAUAUUUUCGGCGGAUGACUCCAAA [G41C G51A A52U C67A]
self-cleavage kobs at 40 uM GlcN6P (glucosamine-6-phosphate [1]): < 1e-05 s⁻¹ | self-cleavage kobs at 10000 uM GlcN6P (glucosamine-6-phosphate [2]): < 1e-05 s⁻¹

AUAAAAGCGCCAGAACUACAGAAAUGUAGUUGACGAGGAGGUGGUUUAUCGAAUUUUCGGCUGAUGCCUCGAAA [A42U G62U C71G]
self-cleavage kobs at 40 uM GlcN6P (glucosamine-6-phosphate [1]): < 1e-05 s⁻¹ | self-cleavage kobs at 10000 uM GlcN6P (glucosamine-6-phosphate [2]): < 1e-05 s⁻¹

AUAAAAGCGCCAGAAUUACAGAAAUGUAGUUGACGAGGAAGAGGUUUAUCGAAUUUUCGGCGGAUGCCUCCAAA [C16U G40A]
self-cleavage kobs at 40 uM GlcN6P (glucosamine-6-phosphate [1]): 0.000204 ± 2e-05 s⁻¹ | self-cleavage kobs at 160 uM GlcN6P (glucosamine-6-phosphate [3]): 0.000448 ± 7e-05 s⁻¹ | self-cleavage kobs at 640 uM GlcN6P (glucosamine-6-phosphate [4]): 0.000996 ± 0.00017 s⁻¹ | self-cleavage kobs at 2500 uM GlcN6P (glucosamine-6-phosphate [5]): 0.00398 ± 0.00098 s⁻¹ | self-cleavage kobs at 10000 uM GlcN6P (glucosamine-6-phosphate [2]): 0.00622 ± 0.00083 s⁻¹

AUAAAAGCGCCAGAACUACAGAAAUGUAGUUGAAGAGGAGGAGGUUUAUCGAAUUUUCGGCCGAUGCCUCCAAA [C34A G62C]
self-cleavage kobs at 40 uM GlcN6P (glucosamine-6-phosphate [1]): < 1e-05 s⁻¹ | self-cleavage kobs at 160 uM GlcN6P (glucosamine-6-phosphate [3]): < 1e-05 s⁻¹ | self-cleavage kobs at 640 uM GlcN6P (glucosamine-6-phosphate [4]): < 1e-05 s⁻¹ | self-cleavage kobs at 2500 uM GlcN6P (glucosamine-6-phosphate [5]): < 1e-05 s⁻¹ | self-cleavage kobs at 10000 uM GlcN6P (glucosamine-6-phosphate [2]): < 1e-05 s⁻¹

AUAAAAGCGCCAGAACUACAGAAAUGUAGUUGACGAGGCGGAGGUUUAUCGAAUUUUCGGCUGAUGCCUCCAAA [A39C G62U]
self-cleavage kobs at 40 uM GlcN6P (glucosamine-6-phosphate [1]): < 1e-05 s⁻¹ | self-cleavage kobs at 2500 uM GlcN6P (glucosamine-6-phosphate [5]): < 1e-05 s⁻¹ | self-cleavage kobs at 10000 uM GlcN6P (glucosamine-6-phosphate [2]): < 1e-05 s⁻¹

AUAAAAGCGUCAGAACUACAGAAAUGUAGUUGACGAUGAGGAUGUUUAUCGGAUUUUCGUCGGAUGCCUCCAAA [C10U G37U G43U A52G G60U]
self-cleavage kobs at 40 uM GlcN6P (glucosamine-6-phosphate [1]): < 1e-05 s⁻¹ | self-cleavage kobs at 2500 uM GlcN6P (glucosamine-6-phosphate [5]): < 1e-05 s⁻¹ | self-cleavage kobs at 10000 uM GlcN6P (glucosamine-6-phosphate [2]): < 1e-05 s⁻¹

AUAAAAGCGCCAGAACUACAGAAAUGUAGUUGAAGGGGCGGAGGUUUAUCGAAUUUUCGGCGGAUGCCUCCAAA [C34A A36G A39C]
self-cleavage kobs at 40 uM GlcN6P (glucosamine-6-phosphate [1]): < 1e-05 s⁻¹ | self-cleavage kobs at 2500 uM GlcN6P (glucosamine-6-phosphate [5]): < 1e-05 s⁻¹ | self-cleavage kobs at 10000 uM GlcN6P (glucosamine-6-phosphate [2]): < 1e-05 s⁻¹

AUAAAAGCGCCAGAACUACAGAAAUGUAGUUGACAAGGAGGAGGUUAAUCGAAUUUCCGGCGGAUACCUCCAAA [G35A U47A U57C G66A]
self-cleavage kobs at 40 uM GlcN6P (glucosamine-6-phosphate [1]): < 1e-05 s⁻¹

AUAAAAGCGCCACAACUACAGAAAUGUAGUUGACGGGGUGGAGGUUUAUCGAAUUUUCGGCGGAUGCCUCCAAA [G13C A36G A39U]
self-cleavage kobs at 40 uM GlcN6P (glucosamine-6-phosphate [1]): < 1e-05 s⁻¹ | self-cleavage kobs at 640 uM GlcN6P (glucosamine-6-phosphate [4]): < 1e-05 s⁻¹ | self-cleavage kobs at 2500 uM GlcN6P (glucosamine-6-phosphate [5]): < 1e-05 s⁻¹

AUAAAAGGGCCAGAACUACAGAAAUGUAGUUGACGAGGAGGAGGCUUAUCGAAUUUUCGGCGGAUGCCUCCAAA [C8G U45C]
self-cleavage kobs at 40 uM GlcN6P (glucosamine-6-phosphate [1]): < 1e-05 s⁻¹ | self-cleavage kobs at 160 uM GlcN6P (glucosamine-6-phosphate [3]): < 1e-05 s⁻¹ | self-cleavage kobs at 640 uM GlcN6P (glucosamine-6-phosphate [4]): < 1e-05 s⁻¹ | self-cleavage kobs at 2500 uM GlcN6P (glucosamine-6-phosphate [5]): < 1e-05 s⁻¹ | self-cleavage kobs at 10000 uM GlcN6P (glucosamine-6-phosphate [2]): < 1e-05 s⁻¹

AUAAAUGCGCCAGAAUUACAGAAAUGUAGUUGACGAGGAGGAGGUUAAUCGAAUUUUCGGCGUAUGCCUCCAAA [A6U C16U U47A G63U]
self-cleavage kobs at 40 uM GlcN6P (glucosamine-6-phosphate [1]): < 1e-05 s⁻¹ | self-cleavage kobs at 10000 uM GlcN6P (glucosamine-6-phosphate [2]): < 1e-05 s⁻¹

AUAAAAGCUCCAGAACUACAGAAAUGUACCUGACGAGGAGGAGGUUUAUCGAAUUUUCGGCGGAUGCCUCCAAA [G9U G29C U30C]
self-cleavage kobs at 40 uM GlcN6P (glucosamine-6-phosphate [1]): < 1e-05 s⁻¹ | self-cleavage kobs at 160 uM GlcN6P (glucosamine-6-phosphate [3]): < 1e-05 s⁻¹ | self-cleavage kobs at 640 uM GlcN6P (glucosamine-6-phosphate [4]): < 1e-05 s⁻¹ | self-cleavage kobs at 2500 uM GlcN6P (glucosamine-6-phosphate [5]): < 1e-05 s⁻¹ | self-cleavage kobs at 10000 uM GlcN6P (glucosamine-6-phosphate [2]): < 1e-05 s⁻¹

AUAAAGGCGCCAGAACUACAGAAAUGUAGUUGACGGGGAGGAGGUUUAUCGAAUUUUCGGCGGAUGCCUCCAAA [A6G A36G]
self-cleavage kobs at 40 uM GlcN6P (glucosamine-6-phosphate [1]): < 1e-05 s⁻¹ | self-cleavage kobs at 640 uM GlcN6P (glucosamine-6-phosphate [4]): < 1e-05 s⁻¹ | self-cleavage kobs at 2500 uM GlcN6P (glucosamine-6-phosphate [5]): < 1e-05 s⁻¹ | self-cleavage kobs at 10000 uM GlcN6P (glucosamine-6-phosphate [2]): < 1e-05 s⁻¹

AUAAAAGCGCCAGAACUACAGAAAUGUAGUUGACGAGGAGGAGGCUUAUCGAGUUUUCGGCGGAUGGAUCCAAA [U45C A53G C67G C68A]
self-cleavage kobs at 40 uM GlcN6P (glucosamine-6-phosphate [1]): 3.17e-05 ± 1.3e-05 s⁻¹ | self-cleavage kobs at 10000 uM GlcN6P (glucosamine-6-phosphate [2]): 8.22e-05 ± 1.3e-05 s⁻¹

AUAAAAGCGCCAGAACUACAGAAAUGUAGUUGACGAGAAGGAGGUUUAUCGAAUUUUCGUCGGAUGCCGCCAAA [G38A G60U U69G]
self-cleavage kobs at 40 uM GlcN6P (glucosamine-6-phosphate [1]): < 1e-05 s⁻¹ | self-cleavage kobs at 10000 uM GlcN6P (glucosamine-6-phosphate [2]): < 1e-05 s⁻¹

AUAAAAGCGCCAGAACUACAGAAAUGUAGUUGACGAGGAGGAGGUUUAUCGAAUUGUCAGCGGAUGCAUCCAAA [U56G G59A C68A]
self-cleavage kobs at 40 uM GlcN6P (glucosamine-6-phosphate [1]): < 1e-05 s⁻¹ | self-cleavage kobs at 640 uM GlcN6P (glucosamine-6-phosphate [4]): < 1e-05 s⁻¹ | self-cleavage kobs at 10000 uM GlcN6P (glucosamine-6-phosphate [2]): < 1e-05 s⁻¹

AUAAAAGCGCCAGGACUACAGAAAUGUAGUUGACGAGGUGGAGAUUUAUCGAAUUUUCGGCGGAUGCCUCCAAA [A14G A39U G44A]
self-cleavage kobs at 40 uM GlcN6P (glucosamine-6-phosphate [1]): 0.000196 ± 4.6e-05 s⁻¹ | self-cleavage kobs at 10000 uM GlcN6P (glucosamine-6-phosphate [2]): 0.00841 ± 0.0018 s⁻¹

AUAAAAGCGCCCGAACUACAGAAAUGUAGUUGACGCGGAGGAGGUUUAUCGAAGUUUCGGCGGAUGCCUCCAAA [A12C A36C U54G]
self-cleavage kobs at 40 uM GlcN6P (glucosamine-6-phosphate [1]): < 1e-05 s⁻¹

AUAAAAGCGCCGGAACUACAGAAAUGUAGUUGACGAGGAGGAGGUUUAUCGAAUUUUCGGCGAUUGCCUCCAAA [A12G G63A A64U]
self-cleavage kobs at 40 uM GlcN6P (glucosamine-6-phosphate [1]): < 1e-05 s⁻¹ | self-cleavage kobs at 160 uM GlcN6P (glucosamine-6-phosphate [3]): < 1e-05 s⁻¹ | self-cleavage kobs at 2500 uM GlcN6P (glucosamine-6-phosphate [5]): < 1e-05 s⁻¹

AUAAAAGCGCCAGGACUACAGAAAUGUAGUUGACGAGGAUGAGGUUUAUCGAAUUUUGGACGGAUGCCUCCAAA [A14G G40U C58G G60A]
self-cleavage kobs at 40 uM GlcN6P (glucosamine-6-phosphate [1]): < 1e-05 s⁻¹ | self-cleavage kobs at 2500 uM GlcN6P (glucosamine-6-phosphate [5]): < 1e-05 s⁻¹

AUAAAAGCGCCUGAACUACAGAAAUGUAUUUGACCAGGAGGAGGUUUAACGAAUUUUCGGCGGAUGCCUAGAAA [A12U G29U G35C U49A C70A C71G]
self-cleavage kobs at 40 uM GlcN6P (glucosamine-6-phosphate [1]): < 1e-05 s⁻¹ | self-cleavage kobs at 160 uM GlcN6P (glucosamine-6-phosphate [3]): < 1e-05 s⁻¹

AUAAAAUCGCCAGAACUACAGAAAUGUAGUUGACGAGGAGGGGGUUUAGCGAAUUUUCGGCGGAUGCCUGCAAA [G7U A42G U49G C70G]
self-cleavage kobs at 40 uM GlcN6P (glucosamine-6-phosphate [1]): < 1e-05 s⁻¹

AUAAAAGCGCCUGAACUACAGAAAUGUAGUUGACGAGGAGUAGGUUUAUCGAAAUUUCGGCGGAUGCCUCCAAA [A12U G41U U54A]
self-cleavage kobs at 40 uM GlcN6P (glucosamine-6-phosphate [1]): 4.72e-05 ± 1.9e-05 s⁻¹ | self-cleavage kobs at 10000 uM GlcN6P (glucosamine-6-phosphate [2]): 0.000602 ± 0.00016 s⁻¹

AUAAAAGCGCCAGAACUACAGAAAUGUAGGUGACGAGGAGGAGUUUUAUCGAAUUUUCGGCGGAUGCCUCCAAA [U30G G44U]
self-cleavage kobs at 40 uM GlcN6P (glucosamine-6-phosphate [1]): < 1e-05 s⁻¹ | self-cleavage kobs at 160 uM GlcN6P (glucosamine-6-phosphate [3]): < 1e-05 s⁻¹ | self-cleavage kobs at 10000 uM GlcN6P (glucosamine-6-phosphate [2]): 4.23e-05 ± 1.3e-05 s⁻¹

AUAAAUGCGCCAGAAAUACAGAAAUGUAGUUGAAGAGCAGGAGGUUUAUCGAAUUUUCGGCGGAUGCCUCCAAA [A6U C16A C34A G38C]
self-cleavage kobs at 40 uM GlcN6P (glucosamine-6-phosphate [1]): < 1e-05 s⁻¹ | self-cleavage kobs at 640 uM GlcN6P (glucosamine-6-phosphate [4]): < 1e-05 s⁻¹ | self-cleavage kobs at 10000 uM GlcN6P (glucosamine-6-phosphate [2]): < 1e-05 s⁻¹

AUAAAAGCGCCAGAACUACAGAAAUGUAGUUGACGAGGAGGAGGUUUAUCGAAUUUUAGACGGAUGCCUCCAAA [C58A G60A]
self-cleavage kobs at 40 uM GlcN6P (glucosamine-6-phosphate [1]): < 1e-05 s⁻¹ | self-cleavage kobs at 160 uM GlcN6P (glucosamine-6-phosphate [3]): < 1e-05 s⁻¹ | self-cleavage kobs at 10000 uM GlcN6P (glucosamine-6-phosphate [2]): < 1e-05 s⁻¹

AUAAAAGCCCCACAACUACAGAAAUGUAGUUGACCAGGAGGAGGUUUAUCGAAUUUUCGGCGGAUGCCUCCAAA [G9C G13C G35C]
self-cleavage kobs at 40 uM GlcN6P (glucosamine-6-phosphate [1]): < 1e-05 s⁻¹ | self-cleavage kobs at 640 uM GlcN6P (glucosamine-6-phosphate [4]): < 1e-05 s⁻¹
